Assay [1] deals with AP2μ-eCFP fusion (UniProt Q96CW1). The assay is described as follows: FACS-based FRET assay. As to conditions: 293T cells cotransfected with Nef-YFP and AP2µ-CFP, measured 24 hours later.
For assay [2], the target named is AP2μ-eCFP fusion (human (HeLa cDNA library)) (UniProt Q96CW1). The assay is described as follows: FRET or BRET; FACS-based FRET; 293 T cells cotransfected with Nef-YFP fusion vectors and AP2μ-CFP; 24 hours later the amount of cells scoring FRET+ measured by flow cytometry.
Where [3] appears, read: mean and SD of four to nine independent transfections, parent: est. 62, read off a plot.

Consider SIVmac 239 Nef-YFP G2A, for which the response (% FRET+ cells) in assay [1] (setting [3]) was found to be 3.

Take SIVmac 239 Nef-YFP Y28F: the response (% FRET+ cells) amounted to 32 in assay [1] (setting [3]) and 38.1 in assay [1] (representative single FACS plot (upper row of panel A), parent: 69.8).

As for SIVmac 239 Nef-YFP Y28A, the response (% FRET+ cells) in assay [1] (setting [3]) turned out to be 26.

For the substance HIV-2 Ben Nef-YFP (natural protein), the percent of FRET+ cells (mean) in assay [2] is less than 35%.

The substance SIVsm FFm1 Nef-YFP (natural protein) yielded a percent of FRET+ cells (mean) in assay [2] of less than 35%.
